Data: the supplement of paper PMC9170038

Test system: K4 kissing-loop RNA reporter
Test: apparent KD of K4 kissing-loop reporter; higher = weaker reporter binding
Settings: Eterna round: R107
Description: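 RNA-MaP round R107: designed RNA switches with theophylline, tryptophan, arginine or FMN aptamers are transcribed on-chip within common flanks. They are titrated with a labelled K4 kissing-loop RNA reporter in RNA-MaP buffer (100 mM Tris pH 7.5, 80 mM KCl, 4 mM MgCl2), without ligand or with the indicated ligand. Median apparent KD per design.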

[1] = input ligand: theophylline 20 uM
[2] = input ligand: tryptophan 2.4 mM
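Also: bound reporter read as fluorescence of individual clusters on recovered sequencing chips by microscopy, with normalized cluster intensities fitted with a binding model.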

| Sequence | apparent KD of K4 kissing-loop reporter (input ligand: FMN 200 uM) [nM] | apparent KD of K4 kissing-loop reporter (input ligand: arginine 13.2 mM) [nM] | apparent KD of K4 kissing-loop reporter (input ligand: none) [nM] | apparent KD of K4 kissing-loop reporter [1] [nM] | apparent KD of K4 kissing-loop reporter [2] [nM] |
| --- | --- | --- | --- | --- | --- |
| UGAUUGAACUGAAGGAGCGGCAAGAGAGAAGGAAAUAUAGUGAUGUUAUAUAAGAGAGAGAGCCAGGUAGGUCGCAGAGGGAGGA [ExArgB.D] | 198 | 113 | 159 | 134 | 151 |
| ACUAUCCGUAUAUAUAAGAUAGCUGGAGAUACCAGUUCAAUCUUGAACCCUUGGCAGCUCACCACCAAGUGAUGUUUGGCACGAC [theeternabot_sameState_KL_Theo_A_42] | 326 | 241 | 326 | 292 | 273 |
| AAGUGUCAUUAGACACACUGAUGUAUAAACUAGGAUAUGCUGAUAAGCAGAAGGAGUGAUGUUCCUUUCAACAUCAGAAUUAAAU [KL-XFMN-A1] | 270 | 145 | 155 | 153 | 126 |
| AGGGUAAGGCGUUAACAUGACACCUGGGAAGGAGCGCGGUACACCGCAGGUAGGUCGCCCAGUGAUGUUGGGUGUAAGUAUGAGU [KL-XArg-A23] | 137 | 109 | 135 | 146 | 115 |
| AAGCAGUCACUCGACGCCAUCGAAGAUGGGCGAGGACCGGUACGGCCGCCACUCGGAGUGAUGUUCUGAUGACUGCAAAAUAAAA [MatMod 8 - Jieux - Exclusion - Tryptophan A] | 119 | 52.7 | 118 | 156 | 94.3 |
| CGCUGGAGUGAUGUUCCAGCUUCUACGGAUACCAGCCACGCCAGCGGCCCUUGGCAGCCGCAAAUUGCAGUGAUGUUGUGAUGCC [Same State Theophylline A GF 4] | 314 | 278 | 312 | 312 | 283 |
| UUCCGGGCCGAAGGAUAUUGGAGUGAUGUUUCAAGACGUUCGUCCCAGCCCAUAGUAACUAUCGCCCAAGAAGGUCGUAUUGAAU [theeternabot_exclusion_KL_FMN_B_13] | 227 | 177 | 243 | 189 | 157 |
| UCACAGUCCAAAGGAUAUUGAGUGCGCGUGCGAUUUAAGCUGAAGCCGUAGCUAGUGAUGUUAGCCCAAGAAGGUUGGUAGCCAG [theeternabot_exclusion_KL_FMN_B_16] | 136 | 128 | 140 | 193 | 115 |
| AGGAUCCGUCGACAAAAGUCGACAAUAACCAAGGAUAUGACGAAAGUCAGAAGGUGGUCUUAUGACCAGUGAUGUUGGUGGAUCC [FmnA 15 #SwitchBubble #K4Late] | 891 | 245 | 500 | 197 | 243 |
| AGUGAUGUUUCUUUUAAGAGUGAUGUUUUUCGAGGACCGGUACGGCCGCCACUCGAGUGAUGAGUGCGUUGUUGUGAUGUUUAGU [#12 K4 Tryptophan A Exclusion] | 461 | 313 | 425 | 459 | 303 |
| CCCAAGGGCCUACCGGUAUGAUGGACGGAUACCAGAGGCGAAAGCCUCCCUUGGCAGCCGGGUGUAGUGAUGUUACUCCGGUAGU | 75.1 | 65.8 | 75 | 78.9 | 72 |
| AAGGUAUCACCAACUUGUAACAUAGGUGAUACCAGCAUCGAAAGAUGCCCUUGGCAGCACCAACUUGCAGUGAUGUUGCAAGUAA [(T)'-(H)'-(T1)-(T2)-(H1)-(H2)_Design11] | 166 | 140 | 152 | 152 | 144 |
| UGAUUGGCGAAAGUAGUGAUGUUACGAAUAUAGGAUAUUAGAGGAAUAAGAAGGAUAAGGGAGAAAUAGGUAAAUUGUUGGUUGG [whbob_SS_FMNA__2th170] | 132 | 79.7 | 128 | 126 | 100 |
| CAUACGCAUGGAGGAUAUGAGAUUACUCAUGUCAUUUAAUAUUCUCAGUGAUGUUGAGAUUUUGGCUCAGAAGGCCAUGUGUAUG [Ex FMN B 18] | 436 | 496 | 534 | 599 | 543 |
| AAUCGCGAGUCAGAUACCAGUUGGCUCGAGAGUCAGUGAUGUUGAUGUAAAUCUUAGGCGAACCCUUGGCAGCUGUCACCAGUCC [theeternabot_sameState_KL_Theo_B_27] | 404 | 326 | 354 | 346 | 325 |
| CCAUCGCUAUUCGAUACCAGCUACUUAGUGAUGUUAAGUUAAAAUCCAUUGUAGAUGGAAAGCCCUUGGCAGCGAAUAGUGAUGG [Theophylline B K4 22] | 440 | 398 | 465 | 210 | 410 |
| AAUAAAAUCACGGCCGCCACUGAUGUUAAUAUUAGCAGUGAUGUUGCUAUGUCGUUUUUCUUUAACAGGACCGGGUGAAUAUUUA [#22 K4 Tryptophan B Exclusion] | 156 | 150 | 170 | 171 | 148 |
| AAAAUAAAUAGCAGUCACGGAGUGAUGUUCCGAGGACCGGUACGGCCGCCACUCGACCAGACAAAGUCUGGAGGCGGAGACUGCA [#SwitchBubble 20 #K4Early] | 166 | 176 | 193 | 187 | 162 |
| UGUAUGGACUGAAGGAGCGCUAGGAGUGUGAGUGAUGUUCAUACAAAUGUAUAGAUGGUCUGGCAGGUAGGUCGCAGUCCAUACU [KL-SSArg B4] | 258 | 145 | 203 | 156 | 184 |
| GCCCUCUUAACGGCCGCCACUAUAUUUAUGAUCUCUAGUAAGUGAUGUUUACUCCGGCUUAUAGGUAGGACCGGGUUAUUAUCUU [theeternabot_sameState_KL_Trp_B_39] | 229 | 336 | 257 | 302 | 181 |
